How the values were obtained:
[1] = target: T1, His-tagged human thrombin (human, UniProt P00734 328-622); assay: binding ELISA; biotinylated His-tagged human thrombin on streptavidin plate
[2] = target: T1, His-tagged human thrombin; assay: Biacore SPR; ratio of the affinities for thrombin and prothrombin
[3] = target: T2, His-tagged human prothrombin (human, UniProt P00734 44-622, limits assumed); assay: binding ELISA; His-tagged human prothrombin coated on plate
T2 construct: not shown: His tag

- EC50 [1]: 0.375 µg/mL
- selective activity (affinity for thrombin relative to affinity for prothrombin) [2]: 11.2
- EC50 [3]: 0.151 µg/mL
B1: h1601-008 (antibody, V domains shown)
VH: EVQLVESGGGLVQPGGSLRLSCAASGFTFSDYYMAWVRQAPGKGLEWVSNINSDGSSTYYLDSLKSRFTISRDNSKNTLYLQMNSLKAEDTAVYYCARDHYHGNSYVFDYWGQGTTVTVSS
VL: DIQMTQSPSSLSASVGDRVTITCKASEDIYNRLAWYQQKPGKAPRLIISGATSLETGVPSRFSGSGSGKDYTLTISSLQPEDFATYYCQQYWSTPWTFGGGTKVEIK
notes: Humanized parent antibody from WO2017133673A1; Only VH and VL are tied to it; it was detected with an anti-human secondary antibody and captured with an anti-human capture kit

Source: WO2019096294A1 (dated 2019)
